Test results: article PMC6239174

How the values were obtained:
Slbp2-MBP [1] = molecular target: T1, Slbp2-MBP (Danio rerio (zebrafish), UniProt A1L2F4 1-326); experiment: EMSA
Slbp2-MBP [2] = molecular target: T1, Slbp2-MBP; experiment: competition EMSA

AAAAAGGUUCUUUUAAGAACCACCCAUUUUU (structured_RNA) [h2a mRNA stem-loop (H2a SL) probe]
binding result (Slbp2-MBP [1]): binds

AAAAAGGUUCUUUUAAGAACCACCCAUUUUU (structured_RNA) [unlabeled H2a SL competitor]
binding result (Slbp2-MBP [2]): binds
